According to US20020103121A1:

Biological target: GAL4 activation domain-E2F-1 hybrid protein (GAD.E2F-1) (human)
Assay: cell-based or functional assay

activity in the yeast two-hybrid assay relative to wild-type DP-1 (% reduction relative to wild-type DP-1): 50
response of the E2F binding site reporter in yeast: 50 % reduction
Substance: LexA-DP-1^172/173 hybrid protein (pLEX-DP-1/MT) (from UniProt Q08639 1-410)
